# Data published in patent US12466852B2, “Method for extraction and purification of hirudin mutant and use thereof” (SUNGEN BIOSCIENCE CO., LTD., priority 2019, dated 2025).
# “Also recorded” adds a separate entry of the source.
# Experiments:
# [1] = biological target: thrombin (Homo sapiens, UniProt P00734); experiment: anticoagulant activity by biochemical method determination (Chinese Pharmacopoeia 2005 edition, page 84)
# Protocol: According to the analysis of anticoagulant activity by biochemical method determination, the anticoagulant activity of the prepared hirudin mutant HV2-Lys47 was calculated to be 17000 ATU/mg. For the specific determination of anticoagulant activity, reference may be made to the left column of page 84 of the Chinese Pharmacopoeia (2005 edition). Moreover, the purity of the hirudin mutant HV2-Lys47 calculated according to the proportion of color bands in gel electrophoresis had reached to 95%.
# [2] = effects of drying process on the activity of hirudin mutant HV2-Lys47 in anticoagulant blood collection tubes; assay type: physicochemical; conditions: for Activity after drying / Activity loss: content 306ATU/tube
# Protocol: Effects of drying process on the activity of hirudin mutant HV2-Lys47 in anticoagulant blood collection tubes were studied.
# The hirudin prepared in Example 9 was dissolved in sterile pure water with a dissolution concentration of 3.4 g/100 ml pure water. 2 ml blood collection tubes were used, and each of them was sprayed with the solution of the prepared hirudin mutant HV2-Lys47 by needle spray, and then dried.
# The common drying process in the art is high temperature drying: drying three times at 45° C., 50° C. and 70° C., three times for each temperature, and 60 seconds each time.
# The drying method in the present application is: drying the sprayed blood collection tubes in a vacuum lyophilizer at a temperature of −50° C. and a vacuum degree of […].
# The effects of high temperature drying and vacuum lyophilization methods on the activity of hirudin mutant HV2-Lys47 were as shown in Table 1 below.
# [3] = system: blood coagulation; experiment: effects of the amount of hirudin mutant HV2-Lys47 in the blood collection tube on blood coagulation; conditions: for Coagulation: blood collection volume 2
# Protocol: Effects of the amount of the hirudin mutant HV2-Lys47, which was prepared and vacuum-lyophilized in Example 9, on blood coagulation were as shown in Table 2 below:
# It can be seen from the above table that anticoagulant effect can be achieved when the amount of the hirudin mutant HV2-Lys47 added in the blood collection tube is 0.005 mg or more.
# [4] = drying for 40 min at −50° C. and with a vacuum degree of −4 Mpa
# [5] = drying three times at 45° C., 60 seconds each time
# [6] = drying three times at 50° C., 60 seconds each time
# [7] = drying three times at 70° C., 60 seconds each time
molecule,measurement,setting,value
hirudin mutant HV2-Lys47: hirudin mutant of SEQ ID NO.: 1; asparagine at position 47 of natural hirudin substituted by lysine; produced by Escherichia coli fermentation (protein) ITYTDCTESGQNLCLCEGSNVCGKGNKCILGSNGKGNQCVTGEGTPKPESHNNGDFEEIPEEYLQ,anticoagulant activity,"[1]; prepared in Example 1 (tube centrifuge, ethanol precipitation)",17000 ATU/mg
same,anticoagulant activity,"[1]; prepared in Example 2 (disk centrifuge, 8% salt)",15800 ATU/mg
same,anticoagulant activity,[1]; prepared in Example 3 (ceramic membrane),16800 ATU/mg
same,anticoagulant activity,[1]; prepared in Example 4 (hollow fiber membrane),16000 ATU/mg
same,anticoagulant activity,[1]; prepared in Example 5 (methanol precipitation),15800 ATU/mg
same,anticoagulant activity,[1]; prepared in Example 6 (acetone precipitation),17000 ATU/mg
same,anticoagulant activity,[1]; prepared in Example 7 (ammonium sulfate precipitation),15000 ATU/mg
same,anticoagulant activity,"[1]; prepared in Example 8 (ceramic membrane, nanofiltration, sodium chloride precipitation)",14500 ATU/mg
same,anticoagulant activity,[1]; prepared in Example 9 (isopropanol precipitation),18000 ATU/mg
same,Activity after drying,[2]; [4],304 ATU/tube
same,Activity loss,[2]; [4],0.65%
same,Activity after drying,[2]; [5],276 ATU/tube
same,Activity loss,[2]; [5],9.8%
same,Activity after drying,[2]; [6],245 ATU/tube
same,Activity loss,[2]; [6],19.9%
same,Activity after drying,[2]; [7],160 ATU/tube
same,Activity loss,[2]; [7],47.7%
same,loss of hirudin activity,[2]; high-temperature drying process generally used in production of a blood collection tube,about 10%
same,hirudin activity loss (in words),[2]; vacuum lyophilization,no hirudin activity loss; also recorded: not lost
same,amount added in the blood collection tube at which anticoagulant effect can be achieved,[3]; 2 ml blood collection,≥ 0.005 mg
same,Coagulation,[3]; amount 0.001,Quick coagulation
same,Coagulation,[3]; amount 0.005,No coagulation
same,Coagulation,[3]; amount 0.008,No coagulation
same,Coagulation,[3]; amount 0.02,No coagulation
same,Coagulation,[3]; amount 0.08,No coagulation
same,Coagulation,[3]; amount 0.16,No coagulation
same,Coagulation,[3]; amount 0.5,No coagulation
same,Coagulation,[3]; amount 1,No coagulation
same,Coagulation,[3]; amount 5,No coagulation
same,Coagulation,[3]; amount 10,No coagulation
same,Coagulation,[3]; amount 15,No coagulation
same,Coagulation,[3]; amount 20,No coagulation
